T1: mouse Fc P-Selectin (CD62P-Fc Chimera, from R&D Systems) (mouse, UniProt Q01102 42-709)
T1 construct: Bought reagent, coated in the flow chamber; also called mouse P-selectin; not shown: Fc part of the commercial chimera
T1 sequence (looked up): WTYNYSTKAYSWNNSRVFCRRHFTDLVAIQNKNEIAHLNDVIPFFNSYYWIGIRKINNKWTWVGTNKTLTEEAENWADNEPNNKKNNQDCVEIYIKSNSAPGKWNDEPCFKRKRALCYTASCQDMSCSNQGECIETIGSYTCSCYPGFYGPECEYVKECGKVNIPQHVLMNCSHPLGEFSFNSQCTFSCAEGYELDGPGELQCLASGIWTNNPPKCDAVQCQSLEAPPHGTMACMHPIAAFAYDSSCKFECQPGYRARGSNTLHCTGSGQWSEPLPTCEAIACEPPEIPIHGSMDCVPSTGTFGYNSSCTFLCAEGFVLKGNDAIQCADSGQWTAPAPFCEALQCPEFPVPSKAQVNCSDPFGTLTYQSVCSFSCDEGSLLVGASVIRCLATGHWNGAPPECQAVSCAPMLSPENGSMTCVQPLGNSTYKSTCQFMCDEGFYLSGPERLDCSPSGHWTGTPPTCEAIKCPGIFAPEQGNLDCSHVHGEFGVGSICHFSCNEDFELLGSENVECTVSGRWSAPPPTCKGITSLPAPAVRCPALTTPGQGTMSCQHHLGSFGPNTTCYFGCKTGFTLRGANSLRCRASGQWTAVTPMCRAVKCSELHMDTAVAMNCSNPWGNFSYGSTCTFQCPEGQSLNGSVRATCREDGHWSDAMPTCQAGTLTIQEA

B1: rPSGL-Ig (glycosylated SEQ ID NO: 4), thiolated and bound to DSPE-PEG-maleimide on gas-filled microvesicles (Example 4) (Fc fusion)
chain: QATEYEYLDYDFLPETEPPEMLRNSTDTTPLTGPGTPESTTVEPAARPHTCPPCPAPEALGAPSVFLFPPKPKDTLMISRTPEVTCVVVDVSHEDPEVKFNWYVDGVEVHNAKTKPREEQYNSTYRVVSVLTVLHQDWLNGKEYKCKVSNKALPVPIEKTISKAKGQPREPQVYTLPPSREEMTKNQVSLTCLVKGFYPSDIAVEWESNGQPENNYKTTPPVLDSDGSFFLYSKLTVDKSRWQQGNVFSCSVMHEALHNHYTQKSLSLSPGK
modifications: glycosylated; amino groups thiolated with Traut reagent (2-iminothiolane) and coupled to DSPE-PEG-maleimide of the microvesicle envelope
notes: also called recombinant PSGL-Ig; dimPSGL-1
B2: Fr-1, purified fragment of rPSGL-Ig (SEQ ID NO:3), dimeric, thiolated and bound to DSPE-PEG-maleimide on gas-filled microvesicles (Example 6) (other)
chain: QATEYEYLDYDFLPETEPPEMLRNSTDTTPLTGPGTPESTTVEPAARPHTCPPCPAPEALGAPSVFLFPPK
modifications: glycosylated (fragment of glycosylated rPSGL-Ig); thiolated with SATA and deacetylated, then coupled to DSPE-PEG-maleimide of the microvesicle envelope
notes: Disulfide-linked homodimer, about 32 kDa by MALDI-ToF; also called dimeric Fr-1
B3: Monomeric Fr-1 (Fr-1 of SEQ ID NO:3 reduced with TCEP) bound to DSPE-PEG-maleimide on gas-filled microvesicles (Example 8) (other)
chain: QATEYEYLDYDFLPETEPPEMLRNSTDTTPLTGPGTPESTTVEPAARPHTCPPCPAPEALGAPSVFLFPPK
modifications: glycosylated (fragment of glycosylated rPSGL-Ig); disulfide bonds reduced with TCEP, free cysteine thiols coupled to DSPE-PEG-maleimide of the microvesicle envelope
notes: also called reduced monomeric Fr-1

target: T1, mouse Fc P-Selectin (CD62P-Fc Chimera, …); experiment: flow chamber adhesion of microvesicles on a mouse P-selectin-Fc coating
Procedure: To test the effective binding, targeted microvesicles prepared according to comparative example 4 were injected in a flow chamber set up comprising a coating of mouse Fc P-Selectin (CD62P-Fc Chimera, from R&D Systems (Minneapolis, Minn., USA). Microvesicles (at equivalent number of 80×10⁶/400 μL TBS++) were injected through the flow chamber (FCS2, Bioptech, USA) in a bolus fashion and their adhesion onto the mouse P-selectin coating layer was assessed over a period of 10 min at a flow rate of 1.0 mL/min (shear rate of 714 s⁻¹) in the presence of 50% human plasma in PBS (v:v, Biomeda collected on citrate, ref. ES1020P, Stehelin & Cie AG). A quantitative analysis of microvesicles accumulation was performed by counting the number of microvesicles adhering in the observed area at 2 min intervals over the total 10 min infusion, using the image processing program Analysis FIVE (SIS, Germany). After 10 min, five pictures were taken randomly and the number of bound microvesicles was measured and expressed as the number of bound bubbles at 10 min (NBB). Each observed area was 183×137 μm, as measured with the aid of a stage micrometer. Measurement was performed between the middle and the exit of the chamber.
Similarly, suspensions of targeted microvesicles prepared according to example 6 (Fr-1 targeting ligand) and according to example 8 (monomeric FR-1) were injected in a flow chamber as described above, and their binding activity determined according to the above procedure.

Row | Binder | binding result
1 | B1 | binds
2 | B2 | binds
3 | B3 | binds
